In paper PMC1847684, “Isolation and functional characterization of a cDNA coding a hydroxycinnamoyltransferase involved in phenylpropanoid biosynthesis in Cynara cardunculus L” (BMC Plant Biology, 2007) one finds Km, Vmax and Vmax/Km data, which are given here for one protein.

Assay in all cases: HPLC product assay, Lineweaver-Burk
What all share (assay type): biochemical, Cynara cardunculus

Substrate in data set [1]: CC(C)(COP(=O)(O)OP(=O)(O)OC[C@H]1O[C@@H](n2cnc3c(N)ncnc32)[C@H](O)[C@@H]1OP(=O)(O)O)[C@@H](O)C(=O)NCCC(=O)NCCSC(=O)/C=C/c1ccc(O)c(O)c1
The conditions noted are these: 20 mM quinate as acceptor, sodium phosphate pH 7.5, 1 mM DTT, 30 C. The source says:
(§1) HPLC product assay, Lineweaver-Burk on HCT (globe artichoke hydroxycinnamoyltransferase; CcHCT)

Substrate in data set [2]: CC(C)(COP(=O)(O)OP(=O)(O)OC[C@H]1O[C@@H](n2cnc3c(N)ncnc32)[C@H](O)[C@@H]1OP(=O)(O)O)[C@@H](O)C(=O)NCCC(=O)NCCSC(=O)/C=C/c1ccc(O)cc1
The following applies: 20 mM quinate as acceptor, sodium phosphate pH 7.5, 1 mM DTT, 30 C, recombinant bacterial extract (discussion says purified, no purification described).
Source text: as §1

Substrate in data set [3]: O=C(O)[C@]1(O)C[C@@H](O)[C@@H](O)[C@H](O)C1
The conditions noted are these: 300 μM p-coumaroyl-CoA as donor, sodium phosphate pH 7.5, 1 mM DTT, 30 C.
Source text: as §1

B1: HCT (globe artichoke hydroxycinnamoyltransferase; CcHCT) (Cynara cardunculus) (protein)
chain: MKIEVRESTMVRPAEETPRINLWNSNVDLVVPNFHTPSVYFYRPNGAANFFDPKVMKDALSRALVPFYPMGGRLKRDEDGRIEIDCQGQGVLFVEAESDGVIDDFGDFAPTLELRKLIPAVDYTLGIESYSLLVLQVTYFKCGGVSLGVGMQHHAADGASGLHFINTWSDLARGLDLAVPPFIDRTLLRSRDPPQPAFDHIEYQPAPPMKTAPTPTPTDDESVPETTVSIFKLTRDQVNALKGKSKEDGNTVNYSSYEMLSGHVWRCVCKARGLPDDQDTKLYIATDGRARLRPSLPRGYFGNVIFTTTPIAVAGDLQSKPTWYAASKIHDALARMDDDYLKSALDYLELQPDLKALVRGAHTFKCPNLGITSWARLPIHDADFGWGRPIFMGPGGIAYEGLSFVLPSPINDGSLSIVISLQAEHMKLFSKFLYDI
notes: full-length ORF (1308 bp, 436 residues printed, ~50 kDa), pET3a NdeI/BamHI, no tag mentioned, E. coli BL21(DE3) pLysE at 28 C
Turning to B1, the Michaelis constant (Km) in data set [1] was 61.75 ± 0.004 µM; in data set [2] it was 53.0 ± 13.0 µM; in data set [3], 9200 ± 5600 µM. Further, the maximal velocity (Vmax) amounted to 0.0402 µmol/min/mg in data set [1], 0.132 µmol/min/mg in data set [2] and 0.126 µmol/min/mg in data set [3]. Also, the Vmax/Km in data set [1] stood at 600 µL/min/mg; in data set [2], 2460 µL/min/mg; in data set [3], 12 µL/min/mg.

In general, Km refers to the substrate concentration at which the rate is half of its maximum. In general, Vmax refers to the rate approached at saturating substrate.
